Laboratory results published in patent publication US20150111821A1.

Target: FGF receptors
Test: cell-based or functional assay

With “FGF1^ΔNT (10-140αα) (SEQ ID NO: 7), N-terminally truncated FGF1 (from UniProt P05230 25-155) (ligand; the values are: fold reduction in signaling)” the FGFR signaling (phosphorylation of downstream ERK and AKT pathways, Western blot, HEK293 cells) was 100 fold.
